Laboratory results reported in article PMC4347857, “Characterization of the Mycobacterial Acyl-CoA Carboxylase Holo Complexes Reveals Their Functional Expansion into Amino Acid Catabolism” (PLoS Pathogens, 2015).

B1: M. tuberculosis AccA1 (Rv2501c) (natural protein)
chain: MFDTVLVANRGEIAVRVIRTLRRLGIRSVAVYSDPDVDARHVLEADAAVRLGPAPARESYLDIGKVLDAAARTGAQAIHPGYGFLAENADFAAACERARVVFLGPPARAIEVMGDKIAAKNAVAAFDVPVVPGVARAGLTDDALVTAAAEVGYPVLIKPSAGGGGKGMRLVQDPARLPEALVSARREAMSSFGDDTLFLERFVLRPRHIEVQVLADAHGNVVHLGERECSLQRRHQKVIEEAPSPLLDPQTRERIGVAACNTARCVDYVGAGTVEFIVSAQRPDEFFFMEMNTRLQVEHPVTEAITGLDLVEWQLRVGAGEKLGFAQNDIELRGHAIEARVYAEDPAREFLPTGGRVLAVFEPAGPGVRVDSSLLGGTVVGSDYDPLLTKVIAHGADREEALDRLDQALARTAVLGVQTNVEFLRFLLADERVRVGDLDTAVLDERSADFTARPAPDDVLAAGGLYRQWALARRAQGDLWAAPSGWRGGGHMAPVRTAMRTPLRSETVSVWGPPESAQVQVGDGEIDCASVQVTREQMSVTISGLRRDYRWAEADRHLWIADERGTWHLREAEEHKIHRAVGARPAEVVSPMPGSVIAVQVESGSQISAGDVVVVVEAMKMEHSLEAPVSGRVQVLVSVGDQVKVEQVLARIKD
notes: also called BC α-subunit of the M. tuberculosis MCC

Legend:
[1] = biological target: B1; test: pull-down; details: partners not purified
[2] = biological target: the molecule itself; test: negative-stain electron microscopy

| Binder | binding result [1] | stoichiometry N [2] |
| --- | --- | --- |
| M. tuberculosis AccD1 (Rv2502c), hexa-histidine tagged (natural protein, also called CT β-subunit of the M. tuberculosis MCC; not shown: His6, N-terminal, kept) MTTPSIAIAPSFADEHRRLVAELNNKLAAAALGGNERARKRHVSRGKLLPRERVDRLLDPGSPFLELAPLAAGGMYGDESPGAGIITGIGRVSGRQCVIVANDATVKGGTYYPMTVKKHLRAQEVALQNMLPCIYLVDSGGAFLPRQDEVFPDREHFGRIFYNQATMSAKGIPQVAAVLGSCTAGGAYVPAMSDEAVIVREQGTIFLGGPPLVKAATGEIVSAEELGGGDLHSRTSGVTDHLADDDEDALRIVRAIADTFGPCEPAQWDVRRSVEPKYPQAELYDVVPPDPRVPYDVHEVVVRIVDGSEFSEFKAKYGKTLVTAFARVHGHPVGIVANNGVLFSESALKGAHFIELCDKRKIPLLFLQNIAGFMVGRDYEAGGIAKHGAKMVTAVACARVPKLTVVIGGSYGAGNYSMCGRAYSPRFLWMWPNARISVMGGEQAASVLATVRGEQLSAAGTPWSPDEEEAFKAPIRAQYEDQGNPYYSTARLWDDGIIDPADTRTVVGLALSLCAHAPLDQVGYGVFRM | binds | 6 |
| B1 |  | 3 |
